Reference: patent US20100316642A1, “COMPLEXES OF GRP94 WITH HUMAN IMMUNOGLOBULIN G” (priority 2007, published 2010)

What was measured:
[1] = tested on: human umbilical vein endothelial cells (HUVECs); experiment: Cell growth stimulation of HUVECs (cell count in hemocytometer); assay type: cell-based; settings: U0126 10 μM alone, no Grp94, control without inhibitor (DMSO 0.1%) 98.01±5.4×10^3
[2] = tested on: HSP90 and HSP70 expression in HUVECs; experiment: Expression of HSP90, HSP70 and IgG in HUVEC lysates and conditioned media (SDS-PAGE, Western blotting); assay type: cell-based, human
Protocol: 2. Effects on the expression of HSP70 and HSP90 in HUVECs: hereafter are described in detail the method and results shown in FIG. 3(A) referred to experiments performed after 20-h incubation of cells in the presence of Grp94 (10 ng/ml), both alone and with IgG, with and without the inhibitor U0126 (10 μM, final concentration). Cells were detached from wells and treated with lysis buffer (50 mM Tris-HCl, pH 8.9, 5 mM EDTA, 380 mM glycine, 2% SDS, 7 mM β-mercaptoethanol). Whole cell lysates were analyzed in SDS-PAGE (10% polyacrylamide gel) followed by Western blotting with anti-HSP90, anti-HSP70 and anti-human IgG Abs. The same quantity of proteins (determined by means of densitometric analysis made on common bands in any lysates) was loaded in each well in SDS-PAGE. Arrows on left mark bands in the lanes that are also shared by nearby lanes on right. […] It is worth noting that band positive for IgG appear at the same masses at which also focuses HSP70. In the presence of the inhibitor, the HSP90 expression is blocked, whereas that of both HSP70 and IgG is still evident in cells after treatment, especially in bands at higher molecular masses. Western blotting for each type of protein is representative of at least three other experiments made on the same samples on different occasions.
The analysis made on cell lysates was also conducted on conditioned media (collected from the same cell cultures on which lysates were obtained, as reported above). Media were collected from duplicate wells, centrifuged for removing cell debris, extensively dialyzed, lyophilized and submitted to electrophoresis analysis followed by Western blotting with anti-HSP90, anti-HSP70 and anti-human IgG Abs (as above, for cell lysates). […] In particular, it was observed that the secreted species of HSP90, HSP70 and IgG were only those induced by treatments with Grp94, especially in complexes with IgG.

HUVECs [3] = experiment: Microscopic evaluation of morphogenic (angiogenic) transformation of HUVECs; assay type: cell-based, human
PBMC = experiment: IgG production from PBMC (anti-human Ig-I125 radioimmunoassay of supernatants); assay type: cell-based; settings: Grp94 10 ng/ml (maximum of stimulation), 2-week incubation at 37° C.
Protocol: In experiments aimed at measuring IgG concentrations in the medium, PBMCs are seeded at the concentration of 2×10^6 cells/ml (1 ml/well) in a 24- or 48-well flat-bottomed plate (wells of 2 and 1 ml, respectively) incubated at 37° C., in a humidified 95% air, 5% CO2 atmosphere for 2 weeks. Controls included triplicate wells containing medium only (or the diluent in which substances were dissolved, where appropriate), puromicine (100 μg/ml, final concentration, useful for detecting background Abs, i.e., Abs already present in circulation non specifically bound to blood cells), and a standard mitogen (pockweed mitogen, PWM) diluted 1:50 (v:v). Treatment included the addition of Grp94 (at final concentrations of 1, 10 and 100 ng/ml), both alone and in complexes with IgG, and IgG alone (at the final concentration necessary to give a 1:1 molar ratio with Grp94), after each solution was incubated at 37° C. for 1 h.
5. IgG production from PBMC: on a 96-well (200 μl each) flat-bottomed Optiplate (Packard) were laid down 50 μl of anti-human IgG Abs (5 μg/ml in NaHCO3/Na2CO3 buffer, ph 9.6) that were allowed to dry out overnight. Afterwards, 200 μl of PBS with 3% BSA and 0.02% NaN3 were added to saturate aspecific binding sites in Abs. […] The plate was then dried after additional washings and radioactivity measured after the addition of 30 μl of Microscint 20 in each well. […]

human IgG = experiment: Dot-blot analysis of Grp94 binding to human IgG; settings: human IgG 4 μg/ml, 8 h room temperature
Protocol: In dot-blot experiments, strips of PVDF membrane were rinsed first in methanol (1 min) and then in de-ionized water (1 min) and let partially dry (3 min). Dots were made with 10 μl of Grp94 (2 μg). Grp94 solution (in bi-distilled water) was used as such (without any treatment) or after boiling for 2 min. Dots with each of the Grp94 solutions (both untreated and boiled) were made in duplicate on membrane strips that were incubated in both absence (control, in TBS only) and presence of human IgG (4 μg/ml) for 8 h at room temperature. Membrane strips were then incubated overnight with a blocking solution of BSA (1%) and Tween (0.2%), followed by washings with TBS (for 1 h) and a further incubation with primary sheep anti-human IgG Abs (2.5 μg/ml). After repeated washings with TBS (for 1 h), membrane strips were then immersed in the solution of secondary Abs (donkey anti-sheep IgG Abs) for 1 h and probed with the detection solution. Control strips with dots of Grp94 incubated with TBS alone were probed with both primary and secondary Abs, and with secondary Abs alone.

HUVECs [4] = experiment: Confocal microscopy of HSP90/HSP70 fluorescence and cytoskeleton changes in HUVECs; assay type: cell-based, human; settings: Grp94 10 ng/ml, serum-free medium
Protocol: Cells were cultured in serum-free medium both without any treatment (control, panels a) and with the addition of both Grp94 alone (10 ng/ml) (panels b) and Grp94 in complexes with IgG (panels c), as specified above. In FIG. 4(A) is shown the fluorescence (evidenced with confocal microscopy) due to anti-HSP90 Abs reacting with HSP90 in both control and treated HUVECs (panels a, b and c on left). Intensity of the fluorescence is increased in cells treated with Grp94, especially when present in complexes with IgG. […] Of interest is the co-location of HSP90 with actin, mostly evident in podosomes, underlined by the pale blue fluorescence due to merging of the green and blue fluorescence of HSP90 and actin, respectively (panels on right). In FIG. 4(B) is shown the fluorescence due to HSP70 following the addition to cell cultures of anti-HSP70 Abs, similarly to what reported for anti-HSP90 Abs. […] Arrow heads in both (A) and (B) mark some of the most significant structural changes in the cell cytoskeleton (inserts in panels on right).

[5] = tested on: human peripheral blood mononuclear cells (PBMCs); experiment: Growth stimulation of PBMCs (cell count after 2-week culture); assay type: cell-based; settings: 2-week incubation, no FBS, control 10% FBS
Protocol: 4. Effects of stimulation of PBMC: PBMC were obtained from blood using the method of the Ficoll-Paque gradient. A sample of about 25 ml of buffy-coat (concentrated sample of red blood cells, white blood cells and platelets) was obtained after centrifugation of 250 ml of blood. The buffy-coat, containing about 300-600 million of PBMCs (1 million/ml of blood sample), was put in a 50-ml Falcon test-tube with the addition of a volume of RPMI (Roswell Park Memorial Institute) medium equal to half of the buffy-coat volume. The first step of PBMC separation included the preparation of the Ficoll solution in aliquots kept in the dark at +4° C. Five ml of buffy-coat were dropped on 4 ml of Ficoll solution put in Falcon test-tube (14-ml capacity). After centrifugation at 600×g for 30 min in swinging buket rotor, the white disk of PBMCs stratified between the upper […] (red blood cells instead precipitate to the bottom), and was thus recovered with a Pasteur pipette. The fractions of PBMCs were mixed together in a Falcon test-tube (50-ml capacity) and fresh RPMI medium added up to the volume of 50 ml. After centrifugation at 600×g for 15 min, the supernatant was discarded and the pellet washed twice by adding the medium up to the volume of 50 ml, each washing being followed by centrifugation at 300×g for 10 min. After the last centrifugation, the pellet was re-suspended with RPMI medium up to 50 ml of volume.
The count of PBMCs was made on a diluted solution of PBMCs, mixing 50 μl of the starting solution in 250 μl (final volume) of Turk dye solution (in acetic acid). The cell count was made in a common cell-counting chamber.
In experiments aimed at measuring IgG concentrations in the medium, PBMCs are seeded at the concentration of 2×10^6 cells/ml (1 ml/well) in a 24- or 48-well flat-bottomed plate (wells of 2 and 1 ml, respectively) incubated at 37° C., in a humidified 95% air, 5% CO2 atmosphere for 2 weeks. […]

Molecule: N#CC(=C(/N)Sc1ccccc1N)/C(C#N)=C(\N)Sc1ccccc1N [U0126, reference compound]
- number of control cells in presence of the inhibitor [1]: 80.38±4.02×10^3
- HSP90 expression in treated HUVECs in the presence of the inhibitor ([2]; U0126 10 μM added to cells treated with Grp94 10 ng/ml alone or with IgG): blocked
- morphology of HUVECs with inhibitor on its own (HUVECs [3]; U0126 10 μM alone): pre-angiogenic transformation

B1: Grp94: Glucose-regulated protein 94, native, purified from the microsomal fraction of rat hepatocytes (protein, UniProt Q66HD0 22-804, looked up)
Endoplasmin: DDEVDVDGTVEEDLGKSREGSRTDDEVVQREEEAIQLDGLNASQIRELREKSEKFAFQAEVNRMMKLIINSLYKNKEIFLRELISNASDALDKIRLISLTDENALAGNEELTVKIKCDREKNLLHVTDTGVGMTREELVKNLGTIAKSGTSEFLNKMTEAQEDGQSTSELIGQFGVGFYSAFLVADKVIVTSKHNNDTQHIWESDSNEFSVIADPRGNTLGRGTTITLVLKEEASDYLELDTIKNLVRKYSQFINFPIYVWSSKTETVEEPLEEDETAQEEKEEADDEAAVEEEEEEKKPKTKKVEKTVWDWELMNDIKPIWQRPSKEVEEDEYKAFYKSFSKESDDPMAYIHFTAEGEVTFKSILFVPTSAPRGLFDEYGSKKSDYIKLYVRRVFITDDFHDMMPKYLNFVKGVVDSDDLPLNVSRETLQQHKLLKVIRKKLVRKTLDMIKKIADEKYNDTFWKEFGTNIKLGVIEDHSNRTRLAKLLRFQSSHHSTDITSLDQYVERMKEKQDKIYFMAGSSRKEAESSPFVERLLKKGYEVIYLTEPVDEYCIQALPEFDGKRFQNVAKEGVKFDESEKSKESREATEKEFEPLLNWMKDKALKDKIEKAVVSQRLTESPCALVASQYGWSGNMERIMKAQAYQTGKDISTNYYASQKKTFEINPRHPLIRDMLRRVKEDEDDKTVMDLAVVLFETATLRSGYLLPDTKAYGDRIERMLRLSLNIDPEAQVEEEPEEEPEDTTEDTTDDSEQDEEETDAGAEEEEEEQETEKEPTEKDEL
- IgG production (radioactivity) (PBMC): 316 cpm
- HSP90, HSP70 and IgG in conditioned media (Western blotting) ([2]; HUVEC media after 20-h treatment, Grp94 10 ng/ml, no positivity in control media, mostly in complexes with IgG): positive immune reaction
- HSP70 in whole cell lysates (Western blotting) ([2]; HUVECs, Grp94 10 ng/ml, 20-h incubation, constitutive form in any lysates): additional bands referred to inducible species of HSP70
- HSP90 in whole cell lysates (Western blotting) ([2]; HUVECs, Grp94 10 ng/ml, 20-h incubation, not present in control lysates): positivity
- binding to IgG (dot-blot) (human IgG; Grp94 after boiling for 2 min): did not bind IgG any longer
- binding to IgG (dot-blot) (human IgG; untreated Grp94 2 μg dots): stable binding
- intensity of HSP90 fluorescence (confocal microscopy) (HUVECs [4]; especially in complexes with IgG): increased
- fluorescence of HSP70 (confocal microscopy) (HUVECs [4]; versus control): increased
- morphogenic transformation of HUVECs (HUVECs [3]; Grp94 10 ng/ml, alone or with IgG 1:1, not changed significantly by U0126, versus cobblestone morphology of control): angiogenic modifications
- increase in PBMC number with respect to the control value ([5]; Grp94 1 ng/ml): 5%
- increase in PBMC number with respect to the control value ([5]; Grp94 10 ng/ml): 63%
- increase in PBMC number with respect to the control value ([5]; Grp94 100 ng/ml): 47%
